According to patent US20240060043A1:

Molecular target: FMC63 protein (Example 2)
Experiment: ELISA, 500 ng/well coated FMC63, fresh biotinylated fusion protein at 500 or 0.5 ng/well, 4° C.

- fold increase in absorbance over wells without fusion protein: > 7 fold
Substance: TNF-α:CD19 ECD fusion protein (ClonedTNFFP)
